Test: label from the status in PepcDB records
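Also: failed if final PepcDB status was selected cloned or expressed and not failed if soluble or beyond.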

Sequence	protein production
MKPTMMTYINEEEEMCRVILADFQTNAEKLESLVKNGAKEWLILATGSSLNAAQSAKYYIENLADVRITIEEPFNHLYYEKLSSHLDLVIGISQSGQSTSTISALERVKKEASVPVVALTSDVTSEIAEFADITLDIGSGKERVGYVTKGFTATVLTLMLTGLHFAYKTVQIDETRFNNEISAFSRAIDAIPATIAETEAFYERWQEEFATAPKFTAIGYGPTVGTCKEFETKFSETVRVPSQGLDLEAFMHGPYLEVNPQHRIFFLETASAVTERLVLLRDYESKYTPFTYTVKFGKGEDDRTLVIPTDLDEYQAPFLMILPFQILAHHIAELKGNKLTERIYTDFGVAMKSKTKPGDYA	not failed
MKPTNKAQDDDAVFALSTEVNHKLDLHQSSAEALRLAGVYTRQSCVLDLYHGYRSDDEDTEPDEEDGRLQTVREYHENGMLKLMRTFVRRLRRDATDPTAESSYYDRVVEEKHYDPSGICRVDMHFALGQPYLYRKHYYPNNRLKSEKVFFVEDEETMRARKVGHWRTYYENGNIQSEIIYNKDGVRCGFCKRYAIDGAIEWVKDYTREQEERLQAFNAKRGNLDLTVTDAARVLGLEGDWCSHVVNRTFRSKCAPLHPDWRRTAGDKAGETWEEEQRTEAFIRLSRAREVLLKFLETHPRECSCERGGA	not failed
MKPVFLDFEQPIAELTNKIDELRFVQDESAVDISDEIHRLQKKSNDLTKSIFSKLTPAQISQVSRHPQRPYTLDYIEALFTDFEELHGDRHFADDYAIVGGLARFNGQSVMVVGHQKGRDTKEKIRRNFGMPRPEGYRKALRLMKTAEKFGLPVMTFIDTPGAYPGIGAEERGQSEAIGKNLYELTRLRVPVLCTVIGEGGSGGALAVALGDYVNMLQYSTYSVISPEGCASILWKTAEKAADAAQALGITADRLQKLDLVDTVIKEPLGGAHRDFGQTMKNVKAVLEKQLHEAQSIPLADLLSRRFDRIMAYGKFSEQ	not failed
MKPVKVGICGLGTVGGGTFNVLQRNAEEIARRAGRGIEVAQIAVRTPNPNCQIGSTPTTSDVFAVATNPEIDIVVELIGGYTLARELVLKAIENGKHVVTANKALIAVHGNEIFAKAREKGVIVAFEAAVAGGIPVIKAIREGLSANRINWVAGIINGTGNFILTEMREKGRTFPDVLAEAQALGYAEVDPTFDVEGIDAAHKLTILASIAFGIPLQFDKAYTEGITKLTTADVNYAEALGYRIKHLGVARSTAQGIELRVHPTLIPADRLIANVNGVMNAVMVNGDASGSTLFYGAGAGMEPTASSVVADLVDVVRAMTSDPENRVPHLAFQPDSLSAHPILPIEACESAYYLRIQAKDHPGVLAQVASILSERGINIESIMQKEVEEHDGLVPMILLTHRVVEQRINDAIQALEALQDVVGPVVRIRVEHLN	not failed
MKQFGGPVLFLDRSDINTDEIIPAKYLTEITKEDLKPYILEDLKLPGFDPKGEKTKTARVVVSRANFGCGSSREHAPWVFEVNGITAVIAESFARIFRQNMFNCGMAAIELSADTIEGLFTYAGCADAAISIDVAGQTLTISGGGTSETHSFDISPFDKALVLAGGWVDYADSKY	failed
MKQFVLFFISLFLLGVGARSQEMYQKKVFISSRGDSLNYRLLRPEVEKTGLQYPLVLFLHGAGERGSDNEKQLTHGGQMFLNPVNREKYPAFVLVPQCPEKDYWAYTSRPSSFIPSEMPVGQEITPVLRAVKELLDTYLDLPQVDRNRIYVVGLSMGGMATYDLAVRFPDTFAAAVPICGTVNPVRLADAANVRFRIFHGDADNVVPVEGSREAYKALKNLGAEVEYIEFPGCNHGSWNPAFNYPGFMEWLFAQRKR	failed
MKQIIIAIGREFGSGGHLVAKKLAEHYNIPLYSKELLDEVAKDGRYSKEVLERFDEKPMNFAFIPVPAGGTTISLEQDIAIRQFNFIRKKANEEKESFVIVGRCAEEILSDNPNMISAFILGDKDTKTKRVMEREGVDEKTALNMMKKMDKMRKVYHNFYCESKWGDSRTYDICIKIGKVDVDTATDMIIKYIDSRDN	not failed
MKQKDLKRAYNNVLAQAISGSKQYLFAGNLFGDIFVLRIKELDKGSEEPPGKLKIFPQGSDVDINYLAFHRDFLIVGAVGLIYGLEWNEEEESLATKRSWEVKIPMQVDAVEVPDVNSMWLDSENSILFAGCGDGVIYQVSLEDGRIQREYRGHTDYVHSVVGNANGQIFSGAEDGTVRVWSTKQQQHTSMLEPYKNPNLLRPDWGKWIGAVAVNEDWLLCGGGPKASIFHLRSMESTCVFSFPGRVHLCDFVDDCVLIGGEHNHVQSYTLNGVLQANIPVEHTACYSAVWQTSPIKFISIAGFSNKLHILKDFRFLDSKIEMYGNVEGEENDPEEEDELIEKPLTVEAA	failed
MKQKSQMETRFVKPLSCLTLSIITTIGILPPATAQETSPAKSACEQVLSNAEQKPLTKQVQKLAQFADPQQERSQMIQQANALFSQGDLPGAEENLCKFLKKYSDDAFGHFQLGNVFFRGKKVEAAISAYQEAIRLRSRYAVAYNALGIVYASQSRWSEAIVQYQKALEINPDYGDALTNVALALWQTNKKDEALASLEKALNIFKKQNRNEKANQVEQLLQRIKNSDDNLS	failed
MKQLLLGRNALFGLLGAIAVLTVVPVATIMPAYAVDDIEGADAPDLTAVQAKIAAKDYKGALAELRDLAQDNQQADVYNLLGFTLRKTGDVTTALTYYNKALELKPDHKAAREYLGELYVETGDMNKAKEQLASLQKLCPAGCEELSDLQKAIDTKVTQ	failed
MKQNLVAVDILLNQMRDRNIKLDSFVVSAIIETNCDRCRTEGASLAFDYSLEMGIHLKKSAYLALIGNFLRSNELPKVIEVVKEMVKAQHSLGCYQGAMLIHRLGFGRRPRLAADVFDLLPDDQKGVAAYTALMDVYISAGSPEKAMKILREMREREIMPSLGTYDVLLSGLEKTSDFQKEVALLRKEKKSLVASARFRENVHVEDKICDLLFATNLL	failed
MKQQKGVALITILVMVALATILAATIAKHQGNTAESTGYLMRQNQSLLYAKSAEAFFSELLIQDAENSPDVDHLAETWAQPMPPFPVEDGFVSGTLRDESGKFNLNNLVNADGTPNPAAQLWFEQLLVRVGLPAELSQAVIDWQDPDDQITGAMGAESNYYQGLSHPYLAANSKFQSVDELRLVRGFEGKKFDLIRPYISALPSVSTTKVNINTAPALLLASIDKNLDINAVQVALKEKMANLGYFKSVDELWALDAFKNIDQDSKTKISTLLDVKSSYFKAYIEVVLSERKRQFTSDLMRNNKKVYVYSRSLTPIFDIPQN	failed
MKQRIPTLLAGACLAIPLHALGAADLLVVNARIFTANPQQPFAEALAVEDGRILAVGDEAGLRALADGDSQVVDLGGKRLMPGLIDTHSHAVFGGLELAGADMGNEQVGLDELERRLRAWRDNGKARHGDMLNVSGMHTAYWSQVKDFRARFDHGEWADQPLAFIGSDHHTGWANAAMLKRAGIDAARVRALPEEQRNTIGHDADATPNGFLADAGLDAVLAVLPAPSAEQMLEAGRSAVRYSNSLGLTAWMDPAANGSPGDALFSLRPDENTVGVLPVYHRLAKGGELSAHVAALLVANPRSRPTDLEVLDKVRQRFLGSPNLTLPGIKVFADGVPEYPAQTAALLEPYRNSRKTGELLIDPAHFGELVSAADARGWLVHVHAIGDRAVREALNGMQQARRDRDSGIAHSITHLQLVNPKEFERFRPLGVIASMQLYWAAADETTVDLMKPYISAFAYRYQYPAHSLLSKGATIAGASDWPVSSLSPWKAIQQAVTRKGPQGVLNAGERLDRQTMFYAYTRNAARTIGLEHRIGSLEPGKQADFIVLDRDVFEVPETQLGETKVLKTWFAGKPVYSSEG	failed
MKQSGTAAHKLTIFYVGMLLLFLIGLWLFATIGKELETNVVDKAMSLRGRGGLVGAFDSFSESVHHHFTDTIGVLLLQIIVILTVARLVAWFFGKIGQPTVIGEIVAGILLGPSLLGAVWPEAYEVLFPLSALANLELLSQFGLILFMFVIGMELNINDIKPRFSQSMIISHAGIFIPFLLGLLISYMTYKDYAADTTTFLPYGLFIGISMSITAFPVLARIIQERQLGKSHLGMLSISTAAAGDISAWLMLAGVMAITQSGSFLSAIYNFLFLILYLLVIFGLVRPFFKVIGRLYDNQEVVSKTMIGFIFVLLLASAYATELLSMHALFGAFMLGLVMPENVQFRKILTEKVEDVSLTLFLPLFFVSSGLQTKLGLLDSASLWLLTGAFTLIAIIGKFGGTYVAARFCGERKKASLYLGAFMNTRGLMELVVLAIGRELGILPPVIFTILVMMTLITTFMTTPLLRLIDLFFKRETELENAALQKENSGAVLLSFGRASSGAHLLHATDLLMHRGDEKPSVTALHITVGSDTNLTSSEVYEERAFAPIREESDRRRLPIRTLHHHTFEHPEAEVVRTVNAGGYSFLLVGAGINLSDRKSDRELLYFRKKLQRKLGPISIATPEALLNAHEMLRDKMHYFIEQTQCSVGIFIHRGFKHAGKVLLLMENEGDEELLAYARSLARNNGSVLDVLPETDGLPPTLSMGENRLKAGLPSTINISSYHFMLVSYRYWLRFAGECPSVIEHLPSTIIIHHRNDRSSTLKAAMI	failed
MKRAVVVFSGGQDSTTCLIQALQDYDDVHCITFDYGQRHRAEIEVAQELSQKLGAAAHKVLDVGLLNELATSSLTRDSIPVPDYDANAQGIPNTFVPGRNILFLTLASIYAYQVGAEAVITGVCETDFSGYPDCRDEFVKALNQAIVLGIARDIRFETPLMWLNKAETWALADYYQQLDTVRYHTLTCYNGIKGDGCGQCAACHLRANGLAQYQKDAATVMASLKQKVGLR	not failed
MKRDVLYNRIILSVFLLSLVSCVAIYYAQQTNQYNTNFLGMQLVFLAIGTLTCFGVSRLPVEFLRHHAIWLYVIMVITLLGILIPNPLVQNINGATRWYRFAGLSFQPSEVVKSIFIFVLAHFAVKYQAQKWKQLGILTVLTGIVLLLIMKQPDLGTTIVYGVTALAIILLAIKSTKLMVGIITLILTAATVGMYVVVYHISLLEKIGFHAYQFSRIQTWLDPTTDPDAVYQLNLSMKAVGSGMMTGSSGTNAYIPESHTDMIFSTIGHQFGFVGVSLLLILFMVLIHQLIMAALLMKNTFSSLVLAGFAVSFAFNIFENIGMTVGLMPLTGIPLPFISYGGSAVLGNFIAVGVVLAIIRSDADLIEEK	failed
MKRFCNGLLASALVLSLLLTGCGAAGGQQPAQASGPEQPAVRTVTDAEGNVVEVPQDISRIAVTPLPWSSVVSAIDGGSQRLASINPGALKAYSGSFFAKLDKNYATLDDTSIGSDFSINVEELLNRQVQVVIIWEYQTAEAAKLKDVGIVPVMVKNGNVQELQDSFKAVGQLLGKEERAKWVNDEYAKAYEKMKSYGEQVKKADKPRVLYLKRSDLTLQGNDNFIKESMELAGADNIAAEAKSITMEEILKLDPEIILLSDFDKFLPQDLYENRIEGQDWSSVSAVVNKRVYKTPVGIYRWDAPGVETPLMMFWLGKMLQPEIFSEVDLKAEMKAFYQDVFDYSLTDEDFGQIFNDKANAASERRIS	failed
